The values that follow come from publication PMC6555819, “Comprehensive study of nuclear receptor DNA binding provides a revised framework for understanding receptor specificity”.

First the molecules themselves.
B1: NRC3_wobSeed133_DR5_G17T_o1 (dsDNA)
DNA 1: GCCGTCCAAGGTCAATTCTAGGTCAGTGAAAGCATTGCGATTGACAGCGTAGAATGAAGG
DNA 2: CCTTCATTCTACGCTGTCAATCGCAATGCTTTCACTGACCTAGAATTGACCTTGGACGGC
B2: NRC3_wobSeed133_DR5_C7G_o1 (dsDNA)
DNA 1: GCCGTCGAAGGTCAATGCTAGGTCAGTGAAAGCATTGCGATTGACAGCGTAGAATGAAGG
DNA 2: CCTTCATTCTACGCTGTCAATCGCAATGCTTTCACTGACCTAGCATTGACCTTCGACGGC
B3: NRC3_wobSeed90_DR3_G15T_o1 (dsDNA)
DNA 1: GCCATACAGGGTCATCTAGGCCAGAGTAGGGACGGCGCGATTGACAGCGTAGAATGAAGG
DNA 2: CCTTCATTCTACGCTGTCAATCGCGCCGTCCCTACTCTGGCCTAGATGACCCTGTATGGC
B4: NRC3_wobSeed53_DR2_C15G_o1 (dsDNA)
DNA 1: GCCCTTACGGGTCAGGAGGTTATAGCACGACGAGCGGCGATTGACAGCGTAGAATGAAGG
DNA 2: CCTTCATTCTACGCTGTCAATCGCCGCTCGTCGTGCTATAACCTCCTGACCCGTAAGGGC
B5: NRC3_wobSeed22_DR0_T22G_o1 (dsDNA)
DNA 1: GCTTACCAAGGTGAAGGTCGTGGATCCCTCTGTAGAGCGATTGACAGCGTAGAATGAAGG
DNA 2: CCTTCATTCTACGCTGTCAATCGCTCTACAGAGGGATCCACGACCTTCACCTTGGTAAGC
B6: NRC3_wobSeed74_DR3_A27G_o1 (dsDNA)
DNA 1: GCTCTAGTTGGTCACGGAGGTCACACGCGACGGGTAGCGATTGACAGCGTAGAATGAAGG
DNA 2: CCTTCATTCTACGCTGTCAATCGCTACCCGTCGCGTGTGACCTCCGTGACCAACTAGAGC
B7: NRC3_wobSeed43_DR1_A25C_o1 (dsDNA)
DNA 1: GCCCAGACAGGTGAAAGGTAACTCCGTCTGGTACGCGCGATTGACAGCGTAGAATGAAGG
DNA 2: CCTTCATTCTACGCTGTCAATCGCGCGTACCAGACGGAGTTACCTTTCACCTGTCTGGGC
B8: NRC3_wobSeed46_DR1_G10A_o1 (dsDNA)
DNA 1: GCTTACCAAAGTGAAAGGTCGTTGATGCACGCCTTGGCGATTGACAGCGTAGAATGAAGG
DNA 2: CCTTCATTCTACGCTGTCAATCGCCAAGGCGTGCATCAACGACCTTTCACTTTGGTAAGC
B9: NRC3_wobSeed111_DR4_A17G_o1 (dsDNA)
DNA 1: GCCGAACTAGGTCAGAGCAGGACAGTGAAGGATGATGCGATTGACAGCGTAGAATGAAGG
DNA 2: CCTTCATTCTACGCTGTCAATCGCATCATCCTTCACTGTCCTGCTCTGACCTAGTTCGGC
B10: NRC3_wobSeed109_DR4_G4C_o1 (dsDNA)
DNA 1: GCCCTCCAAGGTCATAGGAGGTCAGTGAAGACAGATGCGATTGACAGCGTAGAATGAAGG
DNA 2: CCTTCATTCTACGCTGTCAATCGCATCTGTCTTCACTGACCTCCTATGACCTTGGAGGGC
B11: NRC3_wobSeed5_DR0_A15C_o1 (dsDNA)
DNA 1: GCCCTTACGGGTCACGGTTATAGCACGGGTGGTACGGCGATTGACAGCGTAGAATGAAGG
DNA 2: CCTTCATTCTACGCTGTCAATCGCCGTACCACCCGTGCTATAACCGTGACCCGTAAGGGC
B12: NRC3_wobSeed7_DR0_A13T_o1 (dsDNA)
DNA 1: GCTCATATAGGTTAAGGTGAAAGTCGAACGATATGAGCGATTGACAGCGTAGAATGAAGG
DNA 2: CCTTCATTCTACGCTGTCAATCGCTCATATCGTTCGACTTTCACCTTAACCTATATGAGC
B13: NRC3_wobSeed32_DR1_A9T_o1 (dsDNA)
DNA 1: GCTCTTGTTGATCAAAGGTTAAGAAAGCCGAAGCCTGCGATTGACAGCGTAGAATGAAGG
DNA 2: CCTTCATTCTACGCTGTCAATCGCAGGCTTCGGCTTTCTTAACCTTTGATCAACAAGAGC
B14: NRC3_wobSeed27_DR1_C13T_o1 (dsDNA)
DNA 1: GCACTCGGAGGATAAAGGTCAGAGCTACGCCAGTGAGCGATTGACAGCGTAGAATGAAGG
DNA 2: CCTTCATTCTACGCTGTCAATCGCTCACTGGCGTAGCTCTGACCTTTATCCTCCGAGTGC
B15: NRC3_wobSeed27_DR1_A15G_o1 (dsDNA)
DNA 1: GCACTCGGAGGACAGAGGTCAGAGCTACGCCAGTGAGCGATTGACAGCGTAGAATGAAGG
DNA 2: CCTTCATTCTACGCTGTCAATCGCTCACTGGCGTAGCTCTGACCTCTGTCCTCCGAGTGC
B16: NRC3_wobSeed138_DR5_G15T_o1 (dsDNA)
DNA 1: GCGATACAGGGTCATCTAGAGGCCAGAGTATGGAAAGCGATTGACAGCGTAGAATGAAGG
DNA 2: CCTTCATTCTACGCTGTCAATCGCTTTCCATACTCTGGCCTCTAGATGACCCTGTATCGC
B17: NRC3_wobSeed138_DR5_A6T_o1 (dsDNA)
DNA 1: GCGATTCAGGGTCAGCTAGAGGCCAGAGTATGGAAAGCGATTGACAGCGTAGAATGAAGG
DNA 2: CCTTCATTCTACGCTGTCAATCGCTTTCCATACTCTGGCCTCTAGCTGACCCTGAATCGC
B18: NRC3_wobSeed141_DR5_C26A_o1 (dsDNA)
DNA 1: GCAGTCAAAGTTCAGGACGAGGTAAAGTAAAGCACGGCGATTGACAGCGTAGAATGAAGG
DNA 2: CCTTCATTCTACGCTGTCAATCGCCGTGCTTTACTTTACCTCGTCCTGAACTTTGACTGC
B19: NRC3_wobSeed141_DR5_G22A_o1 (dsDNA)
DNA 1: GCAGTCAAAGTTCAGGACGAGATAACGTAAAGCACGGCGATTGACAGCGTAGAATGAAGG
DNA 2: CCTTCATTCTACGCTGTCAATCGCCGTGCTTTACGTTATCTCGTCCTGAACTTTGACTGC
B20: NRC3_wobSeed77_DR3_C16G_o1 (dsDNA)
DNA 1: GCACTTACGGGTCAAGGAGGTTATAGCACGCGTATAGCGATTGACAGCGTAGAATGAAGG
DNA 2: CCTTCATTCTACGCTGTCAATCGCTATACGCGTGCTATAACCTCCTTGACCCGTAAGTGC
B21: NRC3_wobSeed77_DR3_G19A_o1 (dsDNA)
DNA 1: GCACTTACGGGTCAACGAAGTTATAGCACGCGTATAGCGATTGACAGCGTAGAATGAAGG
DNA 2: CCTTCATTCTACGCTGTCAATCGCTATACGCGTGCTATAACTTCGTTGACCCGTAAGTGC
B22: NRC3_wobSeed20_DR0_A9G_o1 (dsDNA)
DNA 1: GCAGAATGGGGTTAAGATCAGGGAAACAGAATACATGCGATTGACAGCGTAGAATGAAGG
DNA 2: CCTTCATTCTACGCTGTCAATCGCATGTATTCTGTTTCCCTGATCTTAACCCCATTCTGC
B23: NRC3_wobSeed61_DR2_T24A_o1 (dsDNA)
DNA 1: GCCGTCCAAGGTCAGCAGGTCAGAGAAAGCGACGTGGCGATTGACAGCGTAGAATGAAGG
DNA 2: CCTTCATTCTACGCTGTCAATCGCCACGTCGCTTTCTCTGACCTGCTGACCTTGGACGGC
B24: NRC3_wobSeed85_DR3_A27T_o1 (dsDNA)
DNA 1: GCCGTCCAAGGTCAGAGAGGTCAGTGTATGCCGAGTGCGATTGACAGCGTAGAATGAAGG
DNA 2: CCTTCATTCTACGCTGTCAATCGCACTCGGCATACACTGACCTCTCTGACCTTGGACGGC
B25: NRC3_wobSeed79_DR3_C17A_o1 (dsDNA)
DNA 1: GCTCATATAGGTAATAAAGGTGAAAGTCGGCATCTAGCGATTGACAGCGTAGAATGAAGG
DNA 2: CCTTCATTCTACGCTGTCAATCGCTAGATGCCGACTTTCACCTTTATTACCTATATGAGC
B26: NRC3_wobSeed4_DR0_T22A_o1 (dsDNA)
DNA 1: GCCCTACTGGGCCAAGGTCATAGATCAGTCAAAGCAGCGATTGACAGCGTAGAATGAAGG
DNA 2: CCTTCATTCTACGCTGTCAATCGCTGCTTTGACTGATCTATGACCTTGGCCCAGTAGGGC
B27: NRC3_wobSeed58_DR2_G18C_o1 (dsDNA)
DNA 1: GCATCGAAAGGTCGTGACGTGAGTATACAGAAAGGCGCGATTGACAGCGTAGAATGAAGG
DNA 2: CCTTCATTCTACGCTGTCAATCGCGCCTTTCTGTATACTCACGTCACGACCTTTCGATGC
B28: NRC3_wobSeed113_DR4_A28C_o1 (dsDNA)
DNA 1: GCATATGTAGGTTAGCTGGGGTCATTCCGACTAGGCGCGATTGACAGCGTAGAATGAAGG
DNA 2: CCTTCATTCTACGCTGTCAATCGCGCCTAGTCGGAATGACCCCAGCTAACCTACATATGC
B29: NRC3_wobSeed93_DR3_C16T_o1 (dsDNA)
DNA 1: GCAGTCAAAGTTCATTTAGGTAACGTAAGATATGCTGCGATTGACAGCGTAGAATGAAGG
DNA 2: CCTTCATTCTACGCTGTCAATCGCAGCATATCTTACGTTACCTAAATGAACTTTGACTGC
B30: NRC3_wobSeed34_DR1_C5A_o1 (dsDNA)
DNA 1: GCATAGAAAGGTCGAAGGTGAGTATACCCACCCGAAGCGATTGACAGCGTAGAATGAAGG
DNA 2: CCTTCATTCTACGCTGTCAATCGCTTCGGGTGGGTATACTCACCTTCGACCTTTCTATGC
B31: NRC3_wobSeed34_DR1_T25C_o1 (dsDNA)
DNA 1: GCATCGAAAGGTCGAAGGTGAGTACACCCACCCGAAGCGATTGACAGCGTAGAATGAAGG
DNA 2: CCTTCATTCTACGCTGTCAATCGCTTCGGGTGGGTGTACTCACCTTCGACCTTTCGATGC
B32: NRC3_wobSeed55_DR2_A15T_o1 (dsDNA)
DNA 1: GCTCATATAGGTAATCAGGTGAAAGTCCGTAAGTTAGCGATTGACAGCGTAGAATGAAGG
DNA 2: CCTTCATTCTACGCTGTCAATCGCTAACTTACGGACTTTCACCTGATTACCTATATGAGC

This data set deals with PPARg:RXRa (Homo sapiens, UniProt P37231;P19793 full;full). Nature of the data set: no ligand; PBM; 180 nM : 90 nM RXRa; PBS pH 7.4, 2% milk, 0.02% Triton X-100, 1 mM DTT, BSA, 0.4 mg/ml salmon testes DNA. The conditions noted are these: tags: His kept;His cleaved; copies: 1;1; label: surface-attached array probe.
Sequence of PPARg:RXRa (P37231 29-505, chain 1 of 2): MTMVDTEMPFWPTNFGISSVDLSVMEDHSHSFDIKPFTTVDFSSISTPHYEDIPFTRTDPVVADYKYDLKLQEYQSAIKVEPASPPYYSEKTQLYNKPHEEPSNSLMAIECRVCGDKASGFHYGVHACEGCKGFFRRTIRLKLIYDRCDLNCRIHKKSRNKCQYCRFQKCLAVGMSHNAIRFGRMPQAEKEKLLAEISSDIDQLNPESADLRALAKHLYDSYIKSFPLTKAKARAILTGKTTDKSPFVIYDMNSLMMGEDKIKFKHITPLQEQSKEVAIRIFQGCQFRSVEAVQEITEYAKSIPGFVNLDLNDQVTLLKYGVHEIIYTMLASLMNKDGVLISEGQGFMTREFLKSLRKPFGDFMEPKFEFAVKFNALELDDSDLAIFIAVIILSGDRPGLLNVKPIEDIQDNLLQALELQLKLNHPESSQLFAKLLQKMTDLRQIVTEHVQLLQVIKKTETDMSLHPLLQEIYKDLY
Sequence of PPARg:RXRa (P19793 whole entry, chain 2 of 2): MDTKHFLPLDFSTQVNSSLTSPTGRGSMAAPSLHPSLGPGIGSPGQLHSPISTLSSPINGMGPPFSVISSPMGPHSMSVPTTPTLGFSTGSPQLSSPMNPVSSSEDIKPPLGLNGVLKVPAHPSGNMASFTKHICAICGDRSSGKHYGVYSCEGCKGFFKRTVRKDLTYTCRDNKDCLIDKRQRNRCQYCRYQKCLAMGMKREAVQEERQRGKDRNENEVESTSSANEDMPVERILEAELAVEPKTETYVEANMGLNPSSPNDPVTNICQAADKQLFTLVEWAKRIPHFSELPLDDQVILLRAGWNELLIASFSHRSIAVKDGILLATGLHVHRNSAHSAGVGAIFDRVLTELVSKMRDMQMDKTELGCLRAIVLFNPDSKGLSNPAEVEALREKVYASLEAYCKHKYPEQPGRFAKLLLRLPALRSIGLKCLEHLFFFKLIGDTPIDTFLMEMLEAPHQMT
Turning to B1, the binding signal is 4.21 PBM z-score against 500 random probes. The same measure for B2: 4.13 PBM z-score against 500 random probes. On to B3, for which the binding signal is 5.29 PBM z-score against 500 random probes. The same measure for B4: 3.77 PBM z-score against 500 random probes; for B5: 3.58 PBM z-score against 500 random probes; for B6: 3.93 PBM z-score against 500 random probes.

B7: the binding signal is 5.61 PBM z-score against 500 random probes.

As to B8, the binding signal is 3.7 PBM z-score against 500 random probes. The same measure for B9: 5.81 PBM z-score against 500 random probes; for B10: 5.72 PBM z-score against 500 random probes. Regarding B11, the binding signal was 6.21 PBM z-score against 500 random probes. Take B12: the binding signal was 4.42 PBM z-score against 500 random probes. Turning to B13, the binding signal was 4.28 PBM z-score against 500 random probes.

Turning to B14, the binding signal is 6.02 PBM z-score against 500 random probes. As to B15, the binding signal is 4.56 PBM z-score against 500 random probes. The figure for B16 is 6.11 PBM z-score against 500 random probes; for B17 it is 4.08 PBM z-score against 500 random probes; for B18 it is 4.92 PBM z-score against 500 random probes. The same measure for B19: 4.64 PBM z-score against 500 random probes; for B20: 5.22 PBM z-score against 500 random probes; for B21: 4.99 PBM z-score against 500 random probes.

In the case of B22, the binding signal was 4.73 PBM z-score against 500 random probes. The figure for B23 is 4.83 PBM z-score against 500 random probes; for B24 it is 3.51 PBM z-score against 500 random probes. The same measure for B25: 3.46 PBM z-score against 500 random probes.

Regarding B26, the binding signal was 4.36 PBM z-score against 500 random probes. For B27, the binding signal was 3.63 PBM z-score against 500 random probes. Turning to B28, the binding signal was 5.53 PBM z-score against 500 random probes. The figure for B29 is 5.92 PBM z-score against 500 random probes; for B30 it is 5.06 PBM z-score against 500 random probes; for B31 it is 4.49 PBM z-score against 500 random probes. The figure for B32 is 3.84 PBM z-score against 500 random probes.
